The record followed here is PMC12307597.

This experiment concerns the target pFAST_(99-114)–FRB–pFAST_(1-98). The experiment is described as follows: split reporter.

FKBP–pFAST_(115-125) registered a percent complementation at 5 μM HBR-2,5DM without rapamycin of less than 6.5%.
